Measurements reported in article PMC8530329 (PLoS Pathogens, 2021).

Target: T1, SARS-CoV-2 S_(fm2P) (SARS-CoV-2, original (reference) …, 682RRAR685 → 682GSAG685 | 986KV987 → 986PP987)
T1 construct: also called ectodomain of the SARS-CoV-2 S protein; SARS-CoV-2 S protein
Assay: cryo-EM structure
Details: both partners purified

B1: RBD-chAb-45 (antibody, V domains shown)
VH: EVQLQQSGPELVKPGASVKISCKTSGYTFTEYTIYWVKQSLGKSLEWIGGNNPNNDDTTYKQFFKGKATLTVDKSSSTAYMELRSLTSEDSAVYYCARDGYPYYYALDFWGQGTSVTVSS
VL: DIVMTQSQKFMSTSVGDRVSVTCKSSQNVGTNVAWYQQKPGQSPKALIYSASYRYSGVPDHFTGSGSGTDFTLTISNVQSADLAEYFCQQYNNYPWTFGGGTKLEIK
notes: also called S-chAb-45 (in complex with S); source: Expi-293 cells, co-transfected, purified (protein G column)
stoichiometry N: 3 chAb (Fab) per S trimer

B2: RBD-chAb-25 (antibody, V domains shown)
VH: EVQLEESGGGLVKPGGSLKLSCAASGFTFSSYTMSWVRQSPEKRLEWVAEISSGGTYTNYPDTATGRFTISRDNAKNTLYLEMSSLRSEDTAMYYCANFGNYEEIAYWGQGTLVTVSA
VL: QIVLTQSPAIMSVSLGERVTMTCTASSSVSSSYLHWYQQKPGSSPKLWIYSTSNLASGVPARFSGSGSGTSYSLTISSMEAEDAATYYCHQYHRSPYTFGGGTKLEIK
notes: also called S-chAb-25 (in complex with S); source: Expi-293 cells, co-transfected, purified (protein G column)
stoichiometry N: 3 chAb (Fab) per S trimer
